In publication PMC12724136, “Design of antibody structure-guided epitope vaccines in silico to induce potent immune responses against emerging viruses” (Journal of Virology, 2025):

Legend:
TiLV-positive antibody = assay: Depletion of TiLV-positive antibodies by epitope peptides (ELISA); type: binding, tilapia; conditions: TiLV-positive antibody diluted 800-fold, 10 depletion cycles
Method: The epitope peptide to be detected was coated on the ELISA plate at 37°C for 2 h. After washing with PBST, it was blocked with 2% skim milk powder for 2 h to reduce non-specific binding. The TiLV-positive antibody was diluted 800-fold and added to the wells at 100 µL per well. After incubation at room temperature for 20 min, the liquid was aspirated. The ELISA plate was briefly washed, and then, the serum was added again. This process was repeated 10 times, and then, the serum was collected. An ELISA was performed on the collected serum to detect the level of tilapia IgM. Blank and non-depleted negative controls were set up in the experiment. The depletion rate was calculated as follows: Depletion rate = (OD450 of non-depleted sample − OD450 of detected sample) / OD450 of non-depleted sample × 100%.

tilapia IgM = assay: Serum antibody levels of tilapia after immunization with epitope peptides (ELISA); type: in vivo, Nile tilapia (Oreochromis niloticus); conditions: 20 µg peptide i.m. with Freund's adjuvant, 7-28 days
Description: Epitope vaccines usually need to be modified with Freund’s adjuvant (Beyotime) before immunization. Briefly, for a single immunization, the epitope peptide is mixed with an equal dose of complete Freund’s adjuvant and then administered to tilapia. For booster immunization, an equal dose of incomplete Freund’s adjuvant is fused with the epitope peptide before vaccination. For the S1, S3, and S10 epitope vaccine immunization programs, healthy Oreochromis niloticus were divided into six groups (70 fish per group) and vaccinated with 20 µg of peptide vaccine by intramuscular injection. During the 1–4 week immunization period, we collected four fish serum samples weekly for immunological analysis.
In the immunization experiments based on the P30-designed vaccine, healthy Nile tilapia were divided into four groups (70 fish per group) and injected intramuscularly with 20 µg of peptide vaccine to complete the primary immunization. After 14 days, the same dose of vaccine was administered again to complete the booster immunization. Serum and tissue samples were collected from 4 fishes in each group weekly after the primary immunization, for a total of 6 weeks. Furthermore, a PBS control was incorporated into both immunization experiments, and the immunization process was conducted in accordance with the aforementioned methodology.
Serum antibody levels after immunization were determined by indirect ELISA. Specifically, serum samples were diluted appropriately, coated to enzyme-labeled plates, and incubated overnight at 4°C. After being washed three times with PBST buffer, each well was incubated with mouse anti-tilapia IgM mAb (1:5,000) at 37°C for 1 h. After washing, each well was incubated with HRP-conjugated goat anti-mouse IgG (1:5,500) for an additional hour. Color development was carried out as described above.

scFv1 = assay: Western blot, binding of S3 epitope peptide and mutants to GST-scFv1; set-up: species or system Nile tilapia (Oreochromis niloticus); conditions: PVDF membrane with GST-scFv1 incubated with S3 proteins 37°C 2 h; 6×His tag antibody
Method: The PET-N-GST-scFv1 plasmid was constructed using seamless cloning technology (Vazyme), and the protein was obtained through a prokaryotic expression system. The scFv1 protein was purified using GST resin (Beyotime) and stored after lyophilization. Similarly, S3-WT, S3-MuT-^Y386^A, S3-MuT-^R393^A, S3-MuT-^L398^A, and S3-MuT were expressed in prokaryotes using the pET32a plasmid. In the Western blot experiment, after blocking, the PVDF membrane containing GST-scFv1 blots was incubated with each of the five S3 proteins at 37°C for 2 h. Subsequently, the anti-6×His tag mouse mAb was used as the primary antibody, and HRP-conjugated goat anti-mouse IgG was used as the secondary antibody. The ECL color development steps were performed as described above.

TiLV [1] = assay: Indirect ELISA, affinity of scFv for TiLV; type: binding, tilapia lake virus (TiLV)
Method: The scFv affinity assay was performed by indirect ELISA. The virus (4 × 10^3 copies/μL) was incubated overnight at 4°C after being coated in the wells. After blocking with 5% skim milk, 100 µL of scFv1 and scFv3 proteins at the same concentrations (0.01–100 μg/mL) were added and incubated. Meanwhile, BSA proteins with the same concentration gradient were used as controls. The primary and secondary antibodies were 6×His tag mouse mAb and HRP-conjugated goat anti-mouse IgG, respectively, following the previous protocol. The color development and readings were performed as described above. The scFvs obtained from both the prokaryotic and eukaryotic expression systems were verified for their affinity to TiLV. Meanwhile, the BSA protein was used as a negative control.

TiLV [2] = assay: In vivo protection study of scFv1 against TiLV infection in tilapia; set-up: species or system Nile tilapia (Oreochromis niloticus); conditions: scFv1 10 μg/g i.p. 12 h after TiLV
Method: Healthy Nile tilapia (Oreochromis niloticus) with a body weight of approximately 3.2±0.6 g were selected. After being temporarily cultured in a circulating water aquaculture system, they were randomly divided into a neutralization experimental group, a virus control group, and a BSA control group, with 30 fish in each group. In the experimental group, 50 μL of TiLV virus suspension (8×10^3 copies/μL) was injected intraperitoneally. Twelve hours later, a solution of scFv1 diluted in PBS at a dose of 10 μg/g was injected intraperitoneally. In the BSA control group, after injecting the same dose of TiLV, BSA solution of the same concentration was used instead of the scFv1. In the virus control group, only virus was injected. Meanwhile, a blank control was set up. After the injection, the mortality of tilapia was observed and recorded continuously for 10 days, and the cumulative mortality rate was calculated.

TiLV [3] = assay: Cellular fluorescence analysis of binding between scFv1 and TiLV in CIK cells; type: cell-based; conditions: GST-scFv1 incubated 24 h with TiLV-infected CIK cells
Method: After being cultured for 48 h, CIK cells grew into a monolayer and were then continuously incubated with TiLV virus at 28°C for 72 h. Subsequently, the culture medium was replaced, and the cells were incubated with GST-scFv1 protein for 24 h to ensure binding to TiLV particles. The cells were fixed with 4% paraformaldehyde at room temperature for 10 min and then incubated with immunostaining permeabilization buffer with Triton X-100 for 10 min. Subsequently, the GST mouse mAb (1:500, Beyotime) was used as the primary antibody and incubated with CIK cells at 4°C overnight, and FITC-labeled goat anti-mouse IgG (1:500, Beyotime) was used as the secondary antibody. After DAPI staining, the cells were observed under a fluorescence microscope. Cells that were not incubated with GST-scFv1 protein served as the control.

GYQLASEIRGTIPLSS [S3WT] was tested, and the “TiLV-positive antibody depletion rate” value (TiLV-positive antibody) was about 70%, the “immunogenicity (serum antibody titer) after single immunization” value (tilapia IgM) was “highest immunogenicity” and the “binding to GST-scFv1 by Western blot” value (scFv1) was “able to bind”.

B1: scFv1: tilapia-derived single-chain antibody fragment with high affinity for TiLV, from phage library (protein)
scFv: MSHRLTCAYSGFSSDIHAVWVRQAAGKGLEWIAYISDSSAYIYYSQSVRGRFTISRDNSRKQVYLQMNSLTTEDSAVYYCTREGSGFAFDYWGKGTGGGGSGGGGSGGGGSVTISATGSSNIGADLSWYLQKTGETPKLLIYKASTRSSGTPPRFSGSTSGSQYTLTISGVQAEDAGDYYCLGDHGGGALTFGGGTK
modifications: left off: 6×His, end not stated, kept | thioredoxin (from the vector pET32a), end not stated, state not stated
With B1 the “EC50 of the scFv expressed in CHO cells that binds to TiLV” value (TiLV [1]; indirect ELISA, scFv from CHO expression system) was 2.098 µg/mL, the “EC50 for the binding of scFv to TiLV” value (TiLV [1]; indirect ELISA, scFv from prokaryotic expression, coated virus 4 × 10^3 copies/μL, scFv 0.01–100 μg/mL) was 33.06 µg/mL and the “EC50 of scFv1 fold lower than that of scFv3” value (TiLV [1]; prokaryotic expression, binding to TiLV) was 3.22 fold. The “increase of the survival rate of TiLV-infected tilapia” value (TiLV [2]) was about 30% and the “binding to TiLV on infected CIK cells (green fluorescence)” value (TiLV [3]) was “had bound to TiLV”.
